Reference: article PMC7089611 (Febs Letters, 2012)
Where “and” joins values, the source holds several entries; their conditions need not be identical. Equal entries are not always repeated. Where two headings read alike, the source gives them in different places.

Legend:
AUC [1] = target: the molecule itself; assay: AUC
[2] = Secondary structural content by CD spectroscopy; type: physicochemical; conditions: 25 °C, protein 5 μM, 50 mM Tris–HCl pH 7.5, 150 mM NaCl, 0.1% β‐mercaptoethanol, CDSSTR
[3] = type: physicochemical; conditions: CD at 220 nm, protein 7 μM, 50 mM Tris–HCl pH 7.5, 150 mM NaCl, 0.1% β‐mercaptoethanol
AUC [4] = target: the molecule itself; assay: AUC; remark: listed apart in the source
AUC [5] = target: the molecule itself; assay: AUC; remark: listed apart in the source

B1: HCoV‐229E nucleocapsid (N) protein C‐terminal domain truncation N245–370 (domain or fragment)
chain: QKPRWKRQPNDDVTSNVTQCFGPRDLDHNFGSAGVVANGVKAKGYPQFAELVPSTAAMLFDSHIVSKESGNTVVLTFTTRVTVPKDHPHLGKFLEELNAFTREMQQHPLLNPSALEFNPSQTSPAT
Kd (AUC [1]): 177 µM | stoichiometry N (AUC [1]): 2 and 4

B2: HCoV‐229E nucleocapsid (N) protein C‐terminal domain truncation N245–382 (domain or fragment)
chain: QKPRWKRQPNDDVTSNVTQCFGPRDLDHNFGSAGVVANGVKAKGYPQFAELVPSTAAMLFDSHIVSKESGNTVVLTFTTRVTVPKDHPHLGKFLEELNAFTREMQQHPLLNPSALEFNPSQTSPATAEPVRDEVSIET
Kd (AUC [1]): 3.83 µM

B3: HCoV‐229E nucleocapsid (N) protein C‐terminal domain truncation N245–376 (domain or fragment)
chain: QKPRWKRQPNDDVTSNVTQCFGPRDLDHNFGSAGVVANGVKAKGYPQFAELVPSTAAMLFDSHIVSKESGNTVVLTFTTRVTVPKDHPHLGKFLEELNAFTREMQQHPLLNPSALEFNPSQTSPATAEPVRD
Kd (AUC [1]): 159 µM | stoichiometry N (AUC [1]): 4 and 2

B4: HCoV‐229E nucleocapsid (N) protein C‐terminal domain truncation N245–350 (domain or fragment)
chain: QKPRWKRQPNDDVTSNVTQCFGPRDLDHNFGSAGVVANGVKAKGYPQFAELVPSTAAMLFDSHIVSKESGNTVVLTFTTRVTVPKDHPHLGKFLEELNAFTREMQQ
Kd (AUC [1]): 256 µM | stoichiometry N (AUC [1]): 2 and 4

B5: N245–350: truncated C‐terminal domain of the HCoV‐229E N protein, dimeric C‐terminal structural domain (protein)
chain: B4 chain
modifications: left off: His6, C-terminal, state not stated
Disordered (random coil) content [2]: ~15% | Sheet content [2]: ~22% | Turn content [2]: ~12% | melting temperature (Tm) [3]: 35.5 °C

B6: HCoV‐229E nucleocapsid (N) protein C‐terminal domain N245–389 (domain or fragment)
chain: QKPRWKRQPNDDVTSNVTQCFGPRDLDHNFGSAGVVANGVKAKGYPQFAELVPSTAAMLFDSHIVSKESGNTVVLTFTTRVTVPKDHPHLGKFLEELNAFTREMQQHPLLNPSALEFNPSQTSPATAEPVRDEVSIETDIIDEVN
Kd (AUC [4]): ~6.1 µM | Kd (AUC [5]): ~9.7 µM | Kd (AUC [1]): 3.5 µM
